{"source": "paper PMC6628001", "about": "“The Biochemical Activities of the Saccharomyces cerevisiae Pif1 Helicase Are Regulated by Its N-Terminal Domain”", "key": {"[1]": {"molecular_target": "T1, Pif1 (full-length recombinant) (Saccharomyces cerevisiae, UniProt P07271 1-859)", "T1 sequence": "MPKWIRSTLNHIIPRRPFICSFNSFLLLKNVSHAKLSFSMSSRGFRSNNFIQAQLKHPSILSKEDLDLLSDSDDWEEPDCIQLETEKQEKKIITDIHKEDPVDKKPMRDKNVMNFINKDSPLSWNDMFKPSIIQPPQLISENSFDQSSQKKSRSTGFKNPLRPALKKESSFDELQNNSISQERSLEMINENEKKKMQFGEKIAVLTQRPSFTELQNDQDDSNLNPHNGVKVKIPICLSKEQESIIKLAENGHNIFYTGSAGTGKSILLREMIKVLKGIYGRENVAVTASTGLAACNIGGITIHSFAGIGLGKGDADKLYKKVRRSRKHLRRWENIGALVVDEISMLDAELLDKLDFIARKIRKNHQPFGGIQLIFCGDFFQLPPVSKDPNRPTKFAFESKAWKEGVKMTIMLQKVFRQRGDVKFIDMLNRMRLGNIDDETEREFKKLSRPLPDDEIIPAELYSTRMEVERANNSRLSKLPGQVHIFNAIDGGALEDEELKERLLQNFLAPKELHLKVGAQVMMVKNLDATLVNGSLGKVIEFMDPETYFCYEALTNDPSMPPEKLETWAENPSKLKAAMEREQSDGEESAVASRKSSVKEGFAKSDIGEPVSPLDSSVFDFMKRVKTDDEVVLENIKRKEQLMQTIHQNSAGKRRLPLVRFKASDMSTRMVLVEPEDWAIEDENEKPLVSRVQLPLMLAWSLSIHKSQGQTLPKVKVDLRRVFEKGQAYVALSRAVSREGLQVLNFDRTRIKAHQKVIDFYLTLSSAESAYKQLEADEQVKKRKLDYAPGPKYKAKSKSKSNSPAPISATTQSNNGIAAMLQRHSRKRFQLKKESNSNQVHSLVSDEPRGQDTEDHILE", "experiment": "EMSA; 7.5 mM Mg2+; 25 mM HEPES pH 8.0, 5% glycerol, 50 mM NaOAc, 150 μM NaCl (so in the source), 7.5 mM MgCl2, 0.01% Tween-20; 0.2 nM DNA; 30 °C 30 min; 4 mM ATP when present (not stated per row)", "details": "protein: recombinant, tags: SUMO tag in expression construct (pSUMO-Pif1)"}, "Pif1ΔN": {"molecular_target": "T2, Pif1ΔN (Saccharomyces cerevisiae, UniProt P07271 234-859, del1-233)", "T2 sequence": "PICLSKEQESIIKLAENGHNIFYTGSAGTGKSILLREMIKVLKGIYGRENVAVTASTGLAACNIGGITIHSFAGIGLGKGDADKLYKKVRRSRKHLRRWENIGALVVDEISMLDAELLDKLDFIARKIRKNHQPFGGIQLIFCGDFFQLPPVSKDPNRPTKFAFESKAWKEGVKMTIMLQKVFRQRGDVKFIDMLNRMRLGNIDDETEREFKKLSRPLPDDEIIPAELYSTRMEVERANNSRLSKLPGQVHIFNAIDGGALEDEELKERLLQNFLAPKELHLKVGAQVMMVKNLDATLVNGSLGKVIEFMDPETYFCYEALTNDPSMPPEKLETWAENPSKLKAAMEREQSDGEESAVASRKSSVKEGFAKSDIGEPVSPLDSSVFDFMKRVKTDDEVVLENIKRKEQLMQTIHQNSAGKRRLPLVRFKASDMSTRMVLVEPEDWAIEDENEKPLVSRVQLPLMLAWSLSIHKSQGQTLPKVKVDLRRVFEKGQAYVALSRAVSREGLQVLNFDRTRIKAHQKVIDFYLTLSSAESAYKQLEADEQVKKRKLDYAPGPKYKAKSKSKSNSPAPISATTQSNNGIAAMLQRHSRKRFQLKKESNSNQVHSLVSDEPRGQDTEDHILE", "experiment": "EMSA; 7.5 mM Mg2+; 25 mM HEPES pH 8.0, 5% glycerol, 50 mM NaOAc, 150 μM NaCl (so in the source), 7.5 mM MgCl2, 0.01% Tween-20; 0.2 nM DNA; 30 °C 30 min; 4 mM ATP when present (not stated per row)", "details": "protein: recombinant, tags: SUMO tag in expression construct (pSUMO-Pif1ΔN)"}, "[2]": {"details": "label: 32P on helicase loading strand (5' end, T4 PNK; MB1572 implied), fork 1:26-45 2:1-20, unpaired 5' DNA arm 25 nt and 3' RNA arm 25 nt"}}, "data": [{"binder": "RNA-DNA hybrid fork (MB1572/MB1571) (DNA:RNA, MB1571 is all RNA; MB1572 is DNA) DNA: GAACGCTATGTGAGTGACACTGGGTCACCACACCCACACCACACC RNA: GGUGUGGUGUGGGUGUGGUGUGGGUCACAGUGAGUGUAUCGCAAG", "values": [{"measurement": "Kd", "setting": "[1]; [2]", "result": "0.67 ± 0.085", "unit": "nM"}, {"measurement": "Kd", "setting": "Pif1ΔN; [2]", "result": "0.135 ± 0.013", "unit": "nM"}]}, {"binder": "TGTGGTGTGTGTGGG (ssDNA)", "note": "[Tel15]", "values": [{"measurement": "Kd", "setting": "[1]; label: 32P (5' end, T4 PNK)", "result": "112 ± 12.7", "unit": "nM"}, {"measurement": "Kd", "setting": "Pif1ΔN; label: 32P (5' end, T4 PNK)", "result": "0.39 ± 0.058", "unit": "nM"}]}, {"binder": "CGCCATGCTGATCCGTGTGGTGTGTGTGGG (ssDNA)", "note": "[Tel30]", "values": [{"measurement": "Kd", "setting": "Pif1ΔN; label: 32P (5' end, T4 PNK)", "result": "0.41 ± 0.031", "unit": "nM"}]}]}
